Target: HLA-A*02:01 (Homo sapiens, UniProt P04439, D140Y/D185E/D98H/E176V/E277Q/G131W/G231S/I119V/I121R/I166T/I218V/L300P/L318F/N151K/N90K/P208A/P217A/Q86G/Q94H/R138H/R169H/T345S)
Assay: MHC binding assay (UV-ligand exchange, β2m ELISA, peptide exchange yield)
Conditions: MHC class I binding score; binding to HLA-A*02:01 ranged by peptide exchange yield (UV-ligand exchange, β2m ELISA)
Description: Candidate peptides for T cell based therapies according to the present invention were further tested for their MHC binding capacity (affinity). The individual peptide-MHC complexes were produced by UV-ligand exchange, where a UV-sensitive peptide is cleaved upon UV-irradiation, and exchanged with the peptide of interest as analyzed. Only peptide candidates that can effectively bind and stabilize the peptide-receptive MHC molecules prevent dissociation of the MHC complexes. To determine the yield of the exchange reaction, an ELISA was performed based on the detection of the light chain (β2m) of stabilized MHC complexes. The assay was performed as generally described in Rodenko et al. (Rodenko et al., 2006).
96 well MAXISorp plates (NUNC) were coated over night with 2 ug/ml streptavidin in PBS at room temperature, washed 4× and blocked for 1h at 37° C. in 2% BSA containing blocking buffer. […] Peptide-MHC monomers of the UV-exchange reaction were diluted 100 fold in blocking buffer. Samples were incubated for 1h at 37° C., washed four times, incubated with 2 ug/ml HRP conjugated anti-β2m for 1h at 37° C., washed again and detected with TMB solution that is stopped with […]. Absorption was measured at 450 nm. Candidate peptides that show a high exchange yield (preferably higher than 50%, most preferred higher than 75%) are generally preferred for a generation and production of antibodies or fragments thereof, and/or T cell receptors or fragments thereof, as they show sufficient avidity to the MHC molecules and prevent dissociation of the MHC complexes.

| Substance | Peptide exchange |
| --- | --- |
| 94 (YLIDIKTIAI; listed as Homo sapiens) [compound 94] | ″++″ (≧20% = ++) |
| 95 (SVIPQIQKV; listed as Homo sapiens) [compound 95] | ″+++″ (≧50% = +++) |
| 96 (YIFTDNPAAV; listed as Homo sapiens) [compound 96] | ″+++″ (≧50% = +++) |
| 97 (SLINGSFLV; listed as Homo sapiens) [compound 97] | ″+++″ (≧50% = +++) |
| 98 (LIIDQADIYL; listed as Homo sapiens) [compound 98] | ″+++″ (≧50% = +++) |
| 99 (ALVSKGLATV; listed as Homo sapiens) [compound 99] | ″++″ (≧20% = ++) |
| 100 (YLLSTNAQL; listed as Homo sapiens) [compound 100] | ″++++″ (≧75% = ++++) |
| 101 (ILVGGGALATV; listed as Homo sapiens) [compound 101] | ″+++″ (≧50% = +++) |
| 102 (YLFESEGLVL; listed as Homo sapiens) [compound 102] | ″+++″ (≧50% = +++) |
| 103 (TLAEEVVAL; listed as Homo sapiens) [compound 103] | ″+++″ (≧50% = +++) |
| 104 (STMEQNFLL; listed as Homo sapiens) [compound 104] | ″++++″ (≧75% = ++++) |
| 106 (LLYDAVHIVSV; listed as Homo sapiens) [compound 106] | ″+++″ (≧50% = +++) |
| 107 (FLQPVDDTQHL; listed as Homo sapiens) [compound 107] | ″+++″ (≧50% = +++) |
| 109 (IILSILEQA; listed as Homo sapiens) [compound 109] | ″++++″ (≧75% = ++++) |
| 110 (FLSQVDFEL; listed as Homo sapiens) [compound 110] | ″+++″ (≧50% = +++) |
| 111 (YVWGFYPAEV; listed as Homo sapiens) [compound 111] | ″+++″ (≧50% = +++) |
| 114 (SLVGEPILQNV; listed as Homo sapiens) [compound 114] | ″++″ (≧20% = ++) |
| 115 (AIAGAGILYGV; listed as Homo sapiens) [compound 115] | ″++″ (≧20% = ++) |
| 116 (YHIDEEVGF; listed as Homo sapiens) [compound 116] | ″+″ (≧10% = +) |
| 117 (ILPDGEDFLAV; listed as Homo sapiens) [compound 117] | ″+++″ (≧50% = +++) |
| 119 (FLYIGDIVSL; listed as Homo sapiens) [compound 119] | ″++++″ (≧75% = ++++) |
| 120 (ALLGIPLTLV; listed as Homo sapiens) [compound 120] | ″+++″ (≧50% = +++) |
| 121 (GVVDPRAISVL; listed as Homo sapiens) [compound 121] | ″++″ (≧20% = ++) |
| 122 (FLLAEDDIYL; listed as Homo sapiens) [compound 122] | ″+++″ (≧50% = +++) |

| Substance | Peptide exchange |
| --- | --- |
| 123 (NLWDLTDASVV; listed as Homo sapiens) [compound 123] | ″+++″ (≧50% = +++) |
| 124 (ALYETELADA; listed as Homo sapiens) [compound 124] | ″++″ (≧20% = ++) |
| 125 (VQIHQVAQV; listed as Homo sapiens) [compound 125] | ″+++″ (≧50% = +++) |
| 126 (VLAYFLPEA; listed as Homo sapiens) [compound 126] | ″++++″ (≧75% = ++++) |
| 127 (KIGDEPPKV; listed as Homo sapiens) [compound 127] | ″++″ (≧20% = ++) |
| 128 (YLFDDPLSAV; listed as Homo sapiens) [compound 128] | ″++″ (≧20% = ++) |
| 129 (GLLDGGVDILL; listed as Homo sapiens) [compound 129] | ″+++″ (≧50% = +++) |
| 130 (FLWNGEDSALL; listed as Homo sapiens) [compound 130] | ″+++″ (≧50% = +++) |
| 131 (FVPPVTVFPSL; listed as Homo sapiens) [compound 131] | ″++″ (≧20% = ++) |
| 132 (LLVEQPPLAGV; listed as Homo sapiens) [compound 132] | ″+++″ (≧50% = +++) |
| 133 (KVLSNIHTV; listed as Homo sapiens) [compound 133] | ″++″ (≧20% = ++) |
| 134 (YLQELIFSV; listed as Homo sapiens) [compound 134] | ″+++″ (≧50% = +++) |
| 135 (ALSEVDFQL; listed as Homo sapiens) [compound 135] | ″+++″ (≧50% = +++) |
| 136 (YLADPSNLFVV; listed as Homo sapiens) [compound 136] | ″+++″ (≧50% = +++) |
| 137 (TLVLTLPTV; listed as Homo sapiens) [compound 137] | ″++++″ (≧75% = ++++) |
| 138 (YQYPRAILSV; listed as Homo sapiens) [compound 138] | ″+++″ (≧50% = +++) |
| 139 (SVMEVNSGIYRV; listed as Homo sapiens) [compound 139] | ″+++″ (≧50% = +++) |
| 140 (YMDAPKAAL; listed as Homo sapiens) [compound 140] | ″++″ (≧20% = ++) |
| 142 (FLFATPVFI; listed as Homo sapiens) [compound 142] | ″+++″ (≧50% = +++) |
| 144 (YIMEPSIFNTL; listed as Homo sapiens) [compound 144] | ″+++″ (≧50% = +++) |
| 145 (FLATSGTLAGI; listed as Homo sapiens) [compound 145] | ″++″ (≧20% = ++) |
| 146 (SLATAGDGLIEL; listed as Homo sapiens) [compound 146] | ″++″ (≧20% = ++) |
| 147 (SLLEAVSFL; listed as Homo sapiens) [compound 147] | ″+++″ (≧50% = +++) |
| 148 (ALNPEIVSV; listed as Homo sapiens) [compound 148] | ″++″ (≧20% = ++) |

Continued, values first:

| Peptide exchange | Substance |
| --- | --- |
| ″+++″ (≧50% = +++) | 149 (NLLELFVQL; listed as Homo sapiens) [compound 149] |
| ″+++″ (≧50% = +++) | 151 (KILQQLVTL; listed as Homo sapiens) [compound 151] |
| ″+″ (≧10% = +) | 153 (FLIANVLYL; listed as Homo sapiens) [compound 153] |
| ″++″ (≧20% = ++) | 154 (ALDDGTPAL; listed as Homo sapiens) [compound 154] |
| ″+++″ (≧50% = +++) | 155 (RVANLHFPSV; listed as Homo sapiens) [compound 155] |
| ″+++″ (≧50% = +++) | 158 (KLFDVDEDGYI; listed as Homo sapiens) [compound 158] |
| ″++++″ (≧75% = ++++) | 159 (GLVGNPLPSV; listed as Homo sapiens) [compound 159] |
| ″+++″ (≧50% = +++) | 160 (FLFDEEIEQI; listed as Homo sapiens) [compound 160] |
| ″+++″ (≧50% = +++) | 161 (ALLEGVNTV; listed as Homo sapiens) [compound 161] |
| ″+++″ (≧50% = +++) | 162 (YQQAQVPSV; listed as Homo sapiens) [compound 162] |
| ″+++″ (≧50% = +++) | 163 (ALDEMGDLLQL; listed as Homo sapiens) [compound 163] |
| ″+++″ (≧50% = +++) | 164 (ALLPQPKNLTV; listed as Homo sapiens) [compound 164] |
| ″+++″ (≧50% = +++) | 165 (SLLDEIRAV; listed as Homo sapiens) [compound 165] |
| ″+++″ (≧50% = +++) | 167 (KVLEVTEEFGV; listed as Homo sapiens) [compound 167] |
| ″++++″ (≧75% = ++++) | 168 (KILDADIQL; listed as Homo sapiens) [compound 168] |
| ″+++″ (≧50% = +++) | 169 (NLPEYLPFV; listed as Homo sapiens) [compound 169] |
| ″+++″ (≧50% = +++) | 170 (RLQETLSAA; listed as Homo sapiens) [compound 170] |
| ″+++″ (≧50% = +++) | 171 (LLLPLQILL; listed as Homo sapiens) [compound 171] |
| ″++″ (≧20% = ++) | 172 (VLYSYTIITV; listed as Homo sapiens) [compound 172] |
| ″+++″ (≧50% = +++) | 173 (LLDSASAGLYL; listed as Homo sapiens) [compound 173] |
| ″+++″ (≧50% = +++) | 174 (ALAQYLITA; listed as Homo sapiens) [compound 174] |
| ″+++″ (≧50% = +++) | 175 (YLFENISQL; listed as Homo sapiens) [compound 175] |
| ″++″ (≧20% = ++) | 176 (YLMEGSYNKVFL; listed as Homo sapiens) [compound 176] |
